The target of assay [1] is H3K9me3 containing chromatin fibers (12 × 601 arrays with recombinant human histone octamer) (human). The assay can be described thus: single-molecule TIRF (smTIRF); chromatin fibers immobilised; 3 nM Atto 532-labeled HP1α with 100 nM KAP1; 50 mM Hepes, 130 mM KCl, 10% glycerol; 22°C.
Assay [2] shares this target. The experiment in a line: single-molecule TIRF (smTIRF); chromatin fibers immobilised; 3 nM Atto 532-labeled HP1α with 400 nM KAP1; 50 mM Hepes, 130 mM KCl, 10% glycerol; 22°C.
Assay [3] shares this target. The assay can be described thus: single-molecule TIRF (smTIRF); chromatin fibers immobilised; 3 nM Atto 532-labeled HP1α with 50 nM KAP1; 50 mM Hepes, 130 mM KCl, 10% glycerol; 22°C.
Assay [4] shares this target. The experiment in a line: single-molecule TIRF (smTIRF); chromatin fibers immobilised; 3 nM Atto 532-labeled HP1α with 200 nM KAP1; 50 mM Hepes, 130 mM KCl, 10% glycerol; 22°C.

Chain of Atto 532–labeled HP1α (P45973 whole entry): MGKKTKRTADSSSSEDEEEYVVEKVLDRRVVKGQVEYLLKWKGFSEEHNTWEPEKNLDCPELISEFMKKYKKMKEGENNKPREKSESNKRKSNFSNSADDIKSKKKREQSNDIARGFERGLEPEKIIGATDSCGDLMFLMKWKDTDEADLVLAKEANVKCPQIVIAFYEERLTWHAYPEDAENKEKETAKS

“Atto 532–labeled HP1α (from UniProt P45973 1-191) (natural protein)”: the kon – broadly, the second-order rate constant of association – in assay [1] was found to be 1.42e+06 M⁻¹ s⁻¹; in assay [2] it was 770000 M⁻¹ s⁻¹; in assay [3], 1.03e+06 M⁻¹ s⁻¹; in assay [4], 1.43e+06 M⁻¹ s⁻¹. Besides, the τ (off,1) in assay [1] worked out at 0.28 s; in assay [2], 0.23 s; in assay [3], 0.29 s; in assay [4], 0.27 s. In addition, the τ (off,2) was determined as 5.79 s in assay [1], 5.03 s in assay [2], 3.64 s in assay [3] and 5.47 s in assay [4].

(Values after paper PMC6701479.)
